Laboratory results published in the supplement of paper PMC7877785.
± gives the uncertainty stated by the source.

Assay: self-splicing fitness, log relative to wild type (ln ratio); higher = more splicing; Tetrahymena group I intron in knt gene, E. coli kanamycin selection, DiMSum; sequences stand for … in CUCUCU…GGAGGGAAAAGUUAUCAGGCAUGCACCUGGUAGCUAGUCUUUAAACCAAUAGAUUGCAUCGGUUUAAAAGGCAAGACCGUCAAAUUGCGGGAAAGGGGUCAACAGCCGUUCAGUACCAAGUCUCAGGGGAAACUUUGAGAUGGCCUUGCAAAGGGUAUGGUAAUAAGCUGACGGACAUGGUCCUAACCACGCAGCCAAGUCCUAAGUCAACAGAUCUUCUGUUGAUAUGGAUGCAGUUCACAGACUAAAUGUCGGUCGGGGAAGAUGUAUUCUUCUCAUAAGAUAUAGUCGGACCUCUCCUUAAUGGGAGCUAGCGGAUGAAGUGAUGCAACACUGGAGCCGCUGGGAACUAAUUUGUAUGCGAAAGUAUAUUGAUUAGUUUUGGAGUACUCGUGGUCG
Outline: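 Pooled colonies went to amplicon sequencing on an Illumina HiSeq 2500 after six replicate transformations. The plates were LB agar with 100 μg/mL carbenicillin, 50 μM IPTG and 0.2% rhamnose, with or without 25 μg/mL kanamycin, incubated overnight at 37°C or 30°C. The E. coli BL21(DE3) library had all eight P1ex-region intron nucleotides randomised, the intron placed in the knt kanamycin-resistance gene on pET-22b(+). DiMSum fitness is the error-weighted combination of replicate fold changes, kanamycin against none, normalised to wild type.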

Sequence	self-splicing fitness (ln) (30 °C)	self-splicing fitness (ln) (37 °C)
AAAAAGCAAUAUUACGAAAG	-2.31 ± 0.098	-1.03 ± 0.12
AAAAAGCAAUAUUACGAUCA	-0.00996 ± 0.084	-0.0134 ± 0.094
AAAAAGCAAUAUUACGCCUG	-0.823 ± 0.09	-0.000429 ± 0.12
AAAAAGCAAUAUUACGCGAG	-0.943 ± 0.085	-1.06 ± 0.11
AAAAAGCAAUAUUACGCGGG	-2.76 ± 0.16	-1.93 ± 0.15
AAAAAGCAAUAUUACGCGUC	-2.31 ± 0.16	-1.72 ± 0.16
AAAAAGCAAUAUUACGCUAA	-2.36 ± 0.15	-1.35 ± 0.13
AAAAAGCAAUAUUACGCUCG	-0.161 ± 0.11	0.0542 ± 0.14
AAAAAGCAAUAUUACGCUUG	-1.69 ± 0.087	-0.744 ± 0.1
AAAAAGCAAUAUUACGGACA	-0.0577 ± 0.11	-0.0474 ± 0.12
AAAAAGCAAUAUUACGGAGA	-3.49 ± 0.19	-3.11 ± 0.18
AAAAAGCAAUAUUACGGGCA	-0.543 ± 0.081	-0.103 ± 0.088
AAAAAGCAAUAUUACGGGGA	-1.74 ± 0.13	-1.8 ± 0.13
AAAAAGCAAUAUUACGUCAA	-1.8 ± 0.08	-0.836 ± 0.073
AAAAAGCAAUAUUACGUGAA	-1.24 ± 0.078	-0.618 ± 0.11
AAAAAGCAAUAUUACGUUCC	-1.3 ± 0.098	-0.521 ± 0.14
AAAAAGCAAUAUUACGUUGA	-2.63 ± 0.11	-1.48 ± 0.12
AAACAGCAAUAUUACGAACC	-2.56 ± 0.18	-0.124 ± 0.17
AAACAGCAAUAUUACGAAGC	-3.98 ± 0.2	-2.75 ± 0.18
AAACAGCAAUAUUACGAAGG	-3.85 ± 0.13	-2.2 ± 0.15
AAACAGCAAUAUUACGACCG	-1.6 ± 0.14	0.0387 ± 0.18
AAACAGCAAUAUUACGAGAG	-2.76 ± 0.18	-2.91 ± 0.16
AAACAGCAAUAUUACGAGCC	-2.55 ± 0.2	-1.75 ± 0.3
AAACAGCAAUAUUACGAGCU	-1.25 ± 0.068	-0.704 ± 0.086
AAACAGCAAUAUUACGAGGU	-4.6 ± 0.26	-2.53 ± 0.15
AAACAGCAAUAUUACGAGUU	-1.94 ± 0.068	-0.482 ± 0.075

Sequence	self-splicing fitness (ln) (30 °C)	self-splicing fitness (ln) (37 °C)
AAACAGCAAUAUUACGAUCC	-1.8 ± 0.088	-0.41 ± 0.11
AAACAGCAAUAUUACGCAUC	-2.82 ± 0.13	-2.07 ± 0.11
AAACAGCAAUAUUACGCCGG	-2.36 ± 0.12	-1.67 ± 0.12
AAACAGCAAUAUUACGCCUU	-1.66 ± 0.093	-0.238 ± 0.1
AAACAGCAAUAUUACGCGCU	-1.03 ± 0.072	-0.289 ± 0.087
AAACAGCAAUAUUACGCGGU	-3.32 ± 0.23	-2.18 ± 0.17
AAACAGCAAUAUUACGGAAU	-3.81 ± 0.16	-2.4 ± 0.14
AAACAGCAAUAUUACGGAUA	-2.99 ± 0.15	-1.92 ± 0.14
AAACAGCAAUAUUACGGCGG	-2.4 ± 0.088	-1.35 ± 0.092
AAACAGCAAUAUUACGGGCA	-1.86 ± 0.1	-1.24 ± 0.1
AAACAGCAAUAUUACGGGCG	-2.12 ± 0.09	-1.41 ± 0.12
AAACAGCAAUAUUACGGGGG	-3.28 ± 0.22	-2.52 ± 0.19
AAACAGCAAUAUUACGGUUC	-2.65 ± 0.078	-2.6 ± 0.12
AAACAGCAAUAUUACGUAAG	-1.23 ± 0.044	-0.526 ± 0.065
AAACAGCAAUAUUACGUAGA	-2.31 ± 0.1	-0.368 ± 0.092
AAACAGCAAUAUUACGUGAU	-2.18 ± 0.053	-1.13 ± 0.072
AAACAGCAAUAUUACGUGCA	-1.19 ± 0.068	-0.303 ± 0.074
AAACAGCAAUAUUACGUUAC	-3.19 ± 0.16	-2.56 ± 0.26
AAACAGCAAUAUUACGUUCG	-1.23 ± 0.051	-0.286 ± 0.068
AAAGAGCAAUAUUACGAAGA	-4.23 ± 0.46	-1.64 ± 0.21
AAAGAGCAAUAUUACGAAGC	-1.67 ± 0.21	-2.04 ± 0.47
AAAGAGCAAUAUUACGACAU	-1.897 ± 0.015	-1.26 ± 0.034
AAAGAGCAAUAUUACGACGA	-2.27 ± 0.23	-2.57 ± 0.25
AAAGAGCAAUAUUACGAGCC	-2.96 ± 0.35	–
AAAGAGCAAUAUUACGAUUC	-2.3 ± 0.14	-1.61 ± 0.14
AAAGAGCAAUAUUACGAUUG	-4.1 ± 0.24	-2.29 ± 0.21

Sequence	self-splicing fitness (ln) (30 °C)	self-splicing fitness (ln) (37 °C)
AAAGAGCAAUAUUACGCAUC	-3.52 ± 0.35	-2.24 ± 0.35
AAAGAGCAAUAUUACGCGGC	–	-3.08 ± 0.4
AAAGAGCAAUAUUACGCGGU	-3.49 ± 0.18	-1.49 ± 0.16
AAAGAGCAAUAUUACGCGUA	-1.96 ± 0.18	-1.61 ± 0.16
AAAGAGCAAUAUUACGCUAA	–	-1.52 ± 0.28
AAAGAGCAAUAUUACGCUGC	-3.15 ± 0.14	-2.84 ± 0.21
AAAGAGCAAUAUUACGGAUG	-4.57 ± 0.42	-2.06 ± 0.23
AAAGAGCAAUAUUACGGCCA	-3.01 ± 0.31	-2.5 ± 0.29
AAAGAGCAAUAUUACGGCUC	-2.64 ± 0.21	-1.67 ± 0.21
AAAGAGCAAUAUUACGGGCG	-2.3 ± 0.14	-3.1 ± 0.47
AAAGAGCAAUAUUACGGUUG	-3.84 ± 0.27	-2.14 ± 0.25
AAAGAGCAAUAUUACGUGAU	-2.95 ± 0.1	-1.81 ± 0.12
AAAGAGCAAUAUUACGUUGA	-2.75 ± 0.21	-2.28 ± 0.26
AAAUAGCAAUAUUACGACUU	0.559 ± 0.099	0.387 ± 0.13
AAAUAGCAAUAUUACGAGAA	–	-0.893 ± 0.23
AAAUAGCAAUAUUACGAUUC	-0.544 ± 0.066	-0.733 ± 0.1
AAAUAGCAAUAUUACGCCGG	-1.6 ± 0.13	-0.713 ± 0.15
AAAUAGCAAUAUUACGCCUU	-0.206 ± 0.073	0.557 ± 0.1
AAAUAGCAAUAUUACGCGUC	-2.19 ± 0.16	-0.755 ± 0.19
AAAUAGCAAUAUUACGCUAA	-2.19 ± 0.21	-1.52 ± 0.2
AAAUAGCAAUAUUACGCUCC	-1.48 ± 0.31	0.174 ± 0.42
AAAUAGCAAUAUUACGCUCU	-0.111 ± 0.075	-0.0401 ± 0.091
AAAUAGCAAUAUUACGGACG	-0.725 ± 0.069	-0.343 ± 0.096
AAAUAGCAAUAUUACGGACU	0.0218 ± 0.068	0.206 ± 0.091
AAAUAGCAAUAUUACGGCUG	-0.833 ± 0.15	-0.0574 ± 0.18
